For assay [1], the target named is T1, Recombinant human IL-1RAP Fc fusion protein (Acrobiosystems, catalog no. ILP-H5256) (human, UniProt Q9NPH3 21-359, limits assumed).
T1 construct: Bought; not shown: Fc part of the bought fusion protein
T1 sequence: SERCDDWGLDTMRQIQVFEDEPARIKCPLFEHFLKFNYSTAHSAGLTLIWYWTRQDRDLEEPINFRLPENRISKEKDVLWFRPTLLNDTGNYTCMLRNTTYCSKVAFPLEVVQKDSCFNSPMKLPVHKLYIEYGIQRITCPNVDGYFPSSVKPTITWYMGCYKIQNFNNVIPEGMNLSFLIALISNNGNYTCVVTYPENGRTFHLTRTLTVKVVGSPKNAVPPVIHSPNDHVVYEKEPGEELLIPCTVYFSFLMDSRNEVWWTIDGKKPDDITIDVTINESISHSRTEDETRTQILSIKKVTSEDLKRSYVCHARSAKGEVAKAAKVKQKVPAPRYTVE
The assay can be described thus: SPR, human IL-1RAP-Fc captured, Fab as analyte, 1:1 fit. The procedure: (§1) Surface plasmon resonance (SPR) was used to measure the binding affinities of the Fab fragments for human, cynomolgus monkey and/or mouse IL-1RAP. Affinities were measured on a BIACORE™ T200 instrument (BIACORE™, GE […]®) at 25° C. and analyzed with the BIACORE™ T200 Evaluation Software (v3.1). Measurements were performed on Series S CM5 sensor chips (BIACORE™ T200, BIACORE™, GE […]®, catalog no. BR100530) coupled with anti-human IgG Fc (BIACORE™, GE […]®, catalog no. BR100839) using a commercial amine coupling kit (BIACORE™, GE […]®, catalog no. BR100050) or on Series S BiotinCAPture chips (BIACORE™, GE […]®, catalog no. 28920234). SPR measurements were performed with commercially available recombinant human IL-1RAP Fc fusion protein (Acrobiosystems, catalog no. ILP-H5256) and recombinant mouse IL-1RAP Fc fusion protein (Sino Biologicals, catalog no. 52657-M02H) or with biotinylated recombinant cynomolgus monkey IL-1RAP-avi-his protein produced in-house (SEQ ID NO. 2).
(§2) The affinities to human, cynomolgus monkey and mouse IL-1RAP were assessed by immobilizing IL-1RAP and using Fab fragments as analyte. Around 100 RU of human or mouse IL-1RAP Fc fusion protein were captured on fc2 of a Series S CM5 sensor chip coupled with anti-human IgG Fc and around 150 RU of biotinylated cynomolgus monkey IL-1RAP protein were captured on fc2 of a Series S BiotinCAPture chip. Fab fragments were injected in single cycle kinetic at different concentrations ranging from 7.8 to 500 nM, in HBS-EP+ buffer (BIACORE™, GE […]®, catalog no. BR100669) at a flow rate of 30 μl/min for 3 min on fc1 and fc2 (fc1 being used as reference). Dissociation was monitored for 5 min. After each cycle, the surface was regenerated with 60 μl of regeneration solution provided with anti-human IgG Fc capture kit (BIACORE™, GE […]®, catalog no. BR100839) or BiotinCAPture kit (BIACORE™, GE […]®, catalog no. 28920234) respectively. Experimental data were processed using the 1:1 Langmuir kinetic fitting model. Measurements included zero-concentration samples for referencing. Chi², U- and residual values were used to evaluate the quality of a fit between the experimental data and individual binding models.
(In general: In SPR one partner is held on a chip, and binding of the other changes the refractive index at the surface.)

Assay [2] concerns the target T2, Recombinant mouse IL-1RAP Fc fusion protein (Sino Biologicals, catalog no. 52657-M02H) (mouse, UniProt Q61730 21-350).
T2 construct: Bought; not shown: Fc part of the bought fusion protein
T2 sequence: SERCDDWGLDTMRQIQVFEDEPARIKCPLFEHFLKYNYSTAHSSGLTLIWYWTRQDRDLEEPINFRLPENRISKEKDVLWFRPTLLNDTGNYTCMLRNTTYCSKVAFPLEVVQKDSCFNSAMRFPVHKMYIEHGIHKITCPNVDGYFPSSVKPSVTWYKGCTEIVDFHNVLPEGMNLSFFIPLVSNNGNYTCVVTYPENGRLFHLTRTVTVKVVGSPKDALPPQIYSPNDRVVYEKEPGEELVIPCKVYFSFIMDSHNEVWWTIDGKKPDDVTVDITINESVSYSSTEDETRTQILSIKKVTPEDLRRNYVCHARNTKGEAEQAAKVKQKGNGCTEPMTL
The experiment in a line: SPR, mouse IL-1RAP-Fc captured, Fab as analyte. The method, then:
as §1, §2

Assay [3] concerns the target T3, Recombinant cynomolgus monkey IL-1RAP-ECD(S21-E359)-avi-his protein (cynomolgus monkey, UniProt P59822 21-359 (rhesus entry)).
T3 construct: also called cyno IL-1RAP-ECD-Avi-His; recombinant cynomolgus monkey IL-1RAP-avi-his protein
T3 sequence: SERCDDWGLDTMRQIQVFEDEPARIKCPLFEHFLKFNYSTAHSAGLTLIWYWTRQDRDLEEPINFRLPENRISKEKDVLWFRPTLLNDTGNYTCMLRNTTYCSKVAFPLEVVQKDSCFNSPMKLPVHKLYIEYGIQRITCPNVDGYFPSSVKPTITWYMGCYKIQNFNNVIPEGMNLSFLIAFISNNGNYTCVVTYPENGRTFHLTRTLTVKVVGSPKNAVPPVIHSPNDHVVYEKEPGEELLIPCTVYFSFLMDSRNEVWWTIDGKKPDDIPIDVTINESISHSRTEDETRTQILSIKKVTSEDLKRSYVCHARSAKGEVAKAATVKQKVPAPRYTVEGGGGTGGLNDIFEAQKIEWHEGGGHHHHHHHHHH
The assay can be described thus: SPR, biotinylated cyno IL-1RAP-avi-his captured, Fab as analyte, 1:1 fit. The method, then:
as §1, §2

The source of these data is patent publication US20240327530A1 (ICHNOS SCIENCES, published 2024).

The term Kd denotes the free concentration of one partner at which half of the binding sites on the other are occupied at equilibrium, for simple one-to-one binding.

B1: Anti-IL-1RAP-UCP02-A4-Fab (Fab, V domains shown)
VH: QVQLVQSGAEVKKPGSSVKVSCKASGGVFSYYAISWVRQAPGQGLEWMGAIIPDFGHTIYAQKFQGRVTITADESTSTAYMELSSLRSEDTAVYYCARASPYKGWWDYWGQGTLVTVSS
VL: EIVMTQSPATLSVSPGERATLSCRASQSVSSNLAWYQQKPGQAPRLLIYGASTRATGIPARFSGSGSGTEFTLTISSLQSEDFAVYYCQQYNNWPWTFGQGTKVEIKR
Consider B1, for which the Kd stood at 84.3 nM in assay [1] and 103 nM in assay [3]. For the same molecule, in assay [2], the binding result is on record as “no binding (tested: 7.8 to 500 nM Fab)”.

B2: Anti-IL-1RAP-UCP02-A6-Fab (Fab, V domains shown)
VH: QVQLVQSGAEVKKPGSSVKVSCKASGGAFRIYAIHWVRQAPGQGLEWMGGILASGGGAVYAQKFQGRVTITADESTSTAYMELSSLRSEDTAVYYCARAKDIYGYGYGDIWGQGTLVTVSS
VL: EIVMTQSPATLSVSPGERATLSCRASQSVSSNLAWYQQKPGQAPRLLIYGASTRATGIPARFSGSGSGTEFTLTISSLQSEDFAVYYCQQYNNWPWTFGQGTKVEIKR
Turning to B2, the Kd in assay [1] was found to be 223 nM; in assay [3] it was 197 nM. The binding result in assay [2] was “no binding (tested: 7.8 to 500 nM Fab)”.

B3: Anti-IL-1RAP-UCP02-C8-Fab (Fab, V domains shown)
VH: QVQLVQSGAEVKKPGSSVKVSCKASGGQFSEYAIQWVRQAPGQGLEWMGYIIPLHGQVDYAQKFQGRVTITADESTSTAYMELSSLRSEDTAVYYCARGQTLYDSGRQFDIWGQGTLVTVSS
VL: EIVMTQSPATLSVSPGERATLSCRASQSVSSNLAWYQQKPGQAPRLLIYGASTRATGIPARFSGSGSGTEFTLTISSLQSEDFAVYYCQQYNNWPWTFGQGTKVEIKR
notes: also called anti-IL-1RAP-C8; anti-IL-1RAP-C8 Fab
In the case of B3, the Kd in assay [1] and in assay [3] was 2.2 nM each time. Further, in assay [2], the binding result is “no binding (tested: 7.8 to 500 nM Fab)”.

B4: Anti-IL-1RAP-UCP02-D2-Fab (Fab, V domains shown)
VH: QVQLVQSGAEVKKPGSSVKVSCKASGGRFSDSAIHWVRQAPGQGLEWMGYILPQFGAPLYAQKFQGRVTITADESTSTAYMELSSLRSEDTAVYYCARGSYYGVVGYVPDDYWGQGTLVTVSS
VL: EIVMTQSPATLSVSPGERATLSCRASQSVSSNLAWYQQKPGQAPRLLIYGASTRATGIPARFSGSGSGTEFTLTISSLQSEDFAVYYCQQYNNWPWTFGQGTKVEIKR
In the case of B4, the Kd turned out to be 49 nM in assay [1] and 50.9 nM in assay [3]. For the same molecule, in assay [2], the binding result is reported as “no binding (tested: 7.8 to 500 nM Fab)”.

B5: Anti-IL-1RAP-UCP03-A3-Fab (Fab, V domains shown)
VH: QVQLVQSGAEVKKPGSSVKVSCKASGGLFNENAIHWVRQAPGQGLEWMGGIIPDVGAAFYAQKFQGRVTITADESTSTAYMELSSLRSEDTAVYYCARGSIYTAWFAVWGQGTLVTVSS
VL: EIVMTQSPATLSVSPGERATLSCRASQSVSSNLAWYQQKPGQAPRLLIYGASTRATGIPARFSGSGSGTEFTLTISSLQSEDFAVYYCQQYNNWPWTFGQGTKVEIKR
Turning to B5, the equilibrium dissociation constant (Kd) in assay [1] amounted to 137 nM; in assay [3] it was 177 nM. The binding result in assay [2] is “no binding (tested: 7.8 to 500 nM Fab)”.

B6: Anti-IL-1RAP-UCP03-C1-Fab (Fab, V domains shown)
VH: QVQLVQSGAEVKKPGSSVKVSCKASGGRFSSNAISWVRQAPGQGLEWMGGIIPHFGAVYYAQKFQGRVTITADESTSTAYMELSSLRSEDTAVYYCARGSVYTGWFDNWGQGTLVTVSS
VL: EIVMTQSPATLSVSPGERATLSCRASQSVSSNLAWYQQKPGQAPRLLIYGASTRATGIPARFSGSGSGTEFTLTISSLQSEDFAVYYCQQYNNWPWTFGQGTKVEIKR
On to B6, for which the Kd in assay [1] is 573 nM; in assay [3], 761 nM. The binding result in assay [2] is given as “no binding (tested: 7.8 to 500 nM Fab)”.

B7: Anti-IL-1RAP-UCP03-F4-Fab (Fab, V domains shown)
VH: QVQLVQSGAEVKKPGSSVKVSCKASGGGFSEYAIHWVRQAPGQGLEWMGAILPEQGAAYYAQKFQGRVTITADESTSTAYMELSSLRSEDTAVYYCARVGLYVPYMDIWGQGTLVTVSS
VL: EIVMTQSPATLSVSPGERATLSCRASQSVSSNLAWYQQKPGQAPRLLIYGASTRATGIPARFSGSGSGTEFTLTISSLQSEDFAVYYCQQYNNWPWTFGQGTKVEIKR
As for B7, in assay [1], the equilibrium dissociation constant (Kd) worked out at 888 nM. Moreover, the binding result in assay [2] was “no binding (tested: 7.8 to 500 nM Fab)”.

B8: Anti-IL-1RAP-UCP02-G3-Fab (Fab, V domains shown)
VH: QVQLVQSGAEVKKPGSSVKVSCKASGGYLNEYAIHWVRQAPGQGLEWMGAVIPRYGQTYYAQKFQGRVTITADESTSTAYMELSSLRSEDTAVYYCARPLGYSYGWFDYWGQGTLVTVSS
VL: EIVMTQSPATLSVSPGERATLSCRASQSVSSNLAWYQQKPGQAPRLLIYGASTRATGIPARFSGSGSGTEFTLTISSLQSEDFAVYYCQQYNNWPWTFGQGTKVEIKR
B8: the dissociation constant (Kd) turned out to be 230 nM in assay [1] and 296 nM in assay [3]. In addition, in assay [2], the binding result was “no binding (tested: 7.8 to 500 nM Fab)”.

B9: Anti-IL-1RAP-UCP02-C5-Fab (Fab, V domains shown)
VH: QVQLVQSGAEVKKPGSSVKVSCKASGGHFNIYAISWVRQAPGQGLEWMGYIIPSLGAVDYAQKFQGRVTITADESTSTAYMELSSLRSEDTAVYYCARASIYHGWMAYWGQGTLVTVSS
VL: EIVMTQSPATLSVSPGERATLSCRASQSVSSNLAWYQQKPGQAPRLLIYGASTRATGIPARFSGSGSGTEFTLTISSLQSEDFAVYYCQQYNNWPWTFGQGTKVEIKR
Turning to B9, the Kd in assay [1] was found to be 368 nM; in assay [3] it was 334 nM. Also, the binding result in assay [2] is “no binding (tested: 7.8 to 500 nM Fab)”.

B10: Anti-IL-1RAP-UCP02-G11-Fab (Fab, V domains shown)
VH: QVQLVQSGAEVKKPGSSVKVSCKASGGQFNDYAIHWVRQAPGQGLEWMGYIIPAYGQAEYAQKFQGRVTITADESTSTAYMELSSLRSEDTAVYYCARVPYSTAYFDYWGQGTLVTVSS
VL: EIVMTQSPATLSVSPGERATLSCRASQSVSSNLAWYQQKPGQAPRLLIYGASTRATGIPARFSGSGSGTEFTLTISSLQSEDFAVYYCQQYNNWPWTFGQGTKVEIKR
On to B10, for which the Kd turned out to be 260 nM in assay [1] and 345 nM in assay [3]. In assay [2], the binding result is listed as “no binding (tested: 7.8 to 500 nM Fab)”.

B11: Anti-IL-1RAP-UCP03-A2-Fab (Fab, V domains shown)
VH: QVQLVQSGAEVKKPGSSVKVSCKASGGKFNFDVIHWVRQAPGQGLEWMGGIIPDFASTHYAQKFQGRVTITADESTSTAYMELSSLRSEDTAVYYCARVPDYYTGWMAYWGQGTLVTVSS
VL: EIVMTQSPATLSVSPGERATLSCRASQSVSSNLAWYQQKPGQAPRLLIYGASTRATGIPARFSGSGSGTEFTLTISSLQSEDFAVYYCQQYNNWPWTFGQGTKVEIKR
On to B11, for which the Kd in assay [1] was found to be 582 nM; in assay [3], 589 nM. The binding result in assay [2] is “no binding (tested: 7.8 to 500 nM Fab)”.

B12: Anti-IL-1RAP-UCP02-G8-Fab (Fab, V domains shown)
VH: QVQLVQSGAEVKKPGSSVKVSCKASGGFFSIYAISWVRQAPGQGLEWMGGIAPAAGIAEYAQKFQGRVTITADESTSTAYMELSSLRSEDTAVYYCARGQSPGRVREEYWYDYWGQGTLVTVSS
VL: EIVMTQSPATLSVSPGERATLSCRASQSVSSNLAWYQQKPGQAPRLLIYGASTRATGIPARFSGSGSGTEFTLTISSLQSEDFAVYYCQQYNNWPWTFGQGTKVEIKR
For B12, the values for the equilibrium dissociation constant (Kd) in assay [1] and in assay [3] were 73.5 nM and 116 nM, respectively. The binding result in assay [2] is given as “no binding (tested: 7.8 to 500 nM Fab)”.

B13: Anti-IL-1RAP-UCP02-H8-Fab (Fab, V domains shown)
VH: QVQLVQSGAEVKKPGSSVKVSCKASGGVFSGYAISWVRQAPGQGLEWMGGIIPEFGATNYAQKFQGRVTITADESTSTAYMELSSLRSEDTAVYYCARHSSAYSPWFDYWGQGTLVTVSS
VL: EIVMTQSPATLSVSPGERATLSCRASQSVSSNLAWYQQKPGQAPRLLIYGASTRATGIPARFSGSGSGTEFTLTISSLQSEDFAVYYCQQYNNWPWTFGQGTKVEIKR
On to B13, for which the results for the Kd in assay [1] and in assay [3] were 328 nM and 297 nM, respectively. For the same molecule, the binding result in assay [2] is “no binding (tested: 7.8 to 500 nM Fab)”.

B14: Anti-IL-1RAP-UCP02-C9-Fab (Fab, V domains shown)
VH: QVQLVQSGAEVKKPGSSVKVSCKASGGVFSYYAFHWVRQAPGQGLEWMGGIIPGYGATFYAQKFQGRVTITADESTSTAYMELSSLRSEDTAVYYCARPVSYSSGWYDYWGQGTLVTVSS
VL: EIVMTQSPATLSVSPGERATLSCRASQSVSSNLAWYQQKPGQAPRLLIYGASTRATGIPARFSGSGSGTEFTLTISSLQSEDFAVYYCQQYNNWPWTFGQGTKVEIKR
B14: the equilibrium dissociation constant (Kd) came to 35.6 nM in assay [1] and 27.8 nM in assay [3]. Further, the binding result in assay [2] was “no binding (tested: 7.8 to 500 nM Fab)”.

B15: Anti-IL-1RAP-UCP02-H9-Fab (Fab, V domains shown)
VH: QVQLVQSGAEVKKPGSSVKVSCKASGGPFSSYALSWVRQAPGQGLEWMGGIIPHHGATYYAQKFQGRVTITADESTSTAYMELSSLRSEDTAVYYCARHPDVYTPWFDVWGQGTLVTVSS
VL: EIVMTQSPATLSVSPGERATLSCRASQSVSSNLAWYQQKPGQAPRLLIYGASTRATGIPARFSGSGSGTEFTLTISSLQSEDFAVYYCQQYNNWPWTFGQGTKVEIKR
B15: the Kd in assay [1] amounted to 907 nM; in assay [3], 682 nM. In addition, the binding result in assay [2] is “no binding (tested: 7.8 to 500 nM Fab)”.
